Common to all, as to format: biochemical
The nature of assay [1]: Esterase activity assay, monomethyl heptanedioate to heptanedioic acid, LC-MS. The following applies: esterase assays. Here is the method:
A nucleotide sequence encoding a C-terminal His-tag may be added to the gene from Bacillus subtilis encoding the esterase of SEQ ID NO: 50 (NCBI Reference Sequence: NP_388108.1) such that a C-terminal HIS tagged esterase is produced. The resulting modified gene is cloned into a pET28b+ expression vector under control of the T7 promoter and the expression vector is transformed into a BL21[DE3] E. coli host. The resulting recombinant E. coli strain can be cultivated at 37° C. in a 500 mL shake flask culture containing 100 mL LB media and antibiotic selection pressure, with shaking at 230 rpm. Each culture is induced overnight at 18° C. using 0.3 mM IPTG.
The pellet from each induced shake flask culture can be harvested via centrifugation. Each pellet is resuspended and lysed via sonication. The cell debris is separated from the supernatant via centrifugation. The esterase can be purified from the supernatant using Ni-affinity chromatography, buffer exchanged and concentrated into 20 mM HEPES buffer (pH=7.5) via ultrafiltration and stored at 4° C.
Enzyme activity assays converting monomethyl heptanedioate to heptanedioic acid are performed in triplicate in a buffer composed of a final concentration of 25 mM Tris-HCl buffer (pH=7.0) and 5 [mM] monomethyl heptanedioic acid. […] The formation of heptanedioic acid can be quantified via LC-MS.

Assay [2] in a line: Carboxylate reductase activity, heptanedioate to 7-oxoheptanoate, NADPH consumption at 340 nm. The following applies: enhanced by gene product of sfp, 2 mM substrate, 20 min, against empty vector control, FIG. 43. Here is the method: A sequence encoding a HIS-tag was added to the genes from Segniliparus rugosus and Segniliparus rotundus that encode the carboxylate reductases of SEQ ID NOs: 31 (GenBank Accession No. EFV11917.1) and 38 (GenBank Accession No. ADG98140.1), respectively, such that N-terminal HIS tagged carboxylate reductases could be produced. Each of the modified genes was cloned into a pET Duet expression vector along with a sfp gene encoding a HIS-tagged phosphopantetheine transferase from Bacillus subtilis, both under the T7 promoter. Each expression vector was transformed into a BL21[DE3] E. coli host and the resulting recombinant E. coli strains were cultivated at 37° C. in a 250 mL shake flask culture containing 50 mL LB media and antibiotic selection pressure, with shaking at 230 rpm. Each culture was induced overnight at 37° C. using an auto-induction media.
The pellet from each induced shake flask culture was harvested via centrifugation. Each pellet was resuspended and lysed via sonication, and the cell debris was separated from the supernatant via centrifugation. […]
Enzyme activity assays (i.e., from heptanedioate to 7-oxoheptanoate) were performed in triplicate in a buffer composed of a final concentration of 50 mM HEPES buffer (pH=7.5), 2 mM heptanedioate, 10 mM MgCl2, 1 mM ATP, and 1 mM NADPH. […] The consumption of NADPH was monitored by absorbance at 340 nm.

A short description of assay [3]: Carboxylate reductase activity, N7-acetyl-7-aminoheptanoate to N7-acetyl-7-aminoheptanal, NADPH consumption at 340 nm. The following applies: enhanced by gene product of sfp, 2 mM substrate, 20 min, against empty vector control, FIG. 45. The method, then:
The activity of each of the N-terminal His-tagged carboxylate reductases of SEQ ID NOs: 29 (GenBank Accession No. ABK71854.1), 37 (Genbank Accession No. EIV11143.1), and 38 (GenBank Accession No. ADG98140.1) (see Examples 4) for converting N7-acetyl-7-aminoheptanoate to N7-acetyl-7-aminoheptanal was assayed in triplicate in a buffer composed of a final concentration of 50 mM HEPES buffer (pH=7.5), 2 mM N7-acetyl-7-aminoheptanoate, 10 mM MgCl2, 1 mM ATP, and 1 mM NADPH. The assays were initiated by adding purified carboxylate reductase and phosphopantetheine transferase or the empty vector control to the assay buffer containing the N7-acetyl-7-aminoheptanoate then incubated at room temperature for 20 min. The consumption of NADPH was monitored by absorbance at 340 nm.

Assay [4] is described as follows: Carboxylate reductase activity, 7-hydroxyheptanoate to 7-hydroxyheptanal, NADPH consumption at 340 nm. The following applies: enhanced by gene product of sfp, 20 min, against empty vector control, FIG. 44.
Assay [5] is described as follows: Carboxylate reductase activity, 7-oxoheptanoate to heptanedial, NADPH consumption at 340 nm. The following applies: enhanced by gene product of sfp, 2 mM substrate, 20 min, against empty vector control, FIG. 46. The method, then:
The N-terminal His-tagged carboxylate reductase of SEQ ID NO: 38 (GenBank Accession No. ADG98140.1) (see Example 4) was assayed using 7-oxoheptanoate as substrate. The enzyme activity assay was performed in triplicate in a buffer composed of a final concentration of 50 mM HEPES buffer (pH=7.5), 2 mM 7-oxoheptanoate, 10 mM MgCl2, 1 mM ATP and 1 mM NADPH. The enzyme activity assay reaction was initiated by adding purified carboxylate reductase and phosphopantetheine transferase or the empty vector control to the assay buffer containing the 7-oxoheptanoate and then incubated at room temperature for 20 min. The consumption of NADPH was monitored by absorbance at 340 nm.

Data on two molecules can be found in patent US10801046B2, “Methods and materials for biosynthesizing multifunctional, multivariate molecules via carbon chain modification” (INVISTA NORTH AMERICA S.A.R.L., priority 2016, dated 2020).

B1: esterase from Streptomyces diastatochromogenes: estA from Streptomyces diastatochromogenes classified under EC 3.1.1.1 (protein)
chain: MARFRTRLALLGSAAALAAGAVVPAQLAGAQPAAAAADLQWVALGDSYTAGVIRAAGDAIDYPRDGCERTDRSYPQVIERDLYGLFDLTNVSCGAATIENVSDTPQYPIGRHMPPFSEDPDHPFPPVPPQSEAVGPGTDVITVGVGGNTLGFADILTKCQELGGESGGEGTPCKGALGSGIKARLDKVSQGYDRMLTVLHERGPKAKILTVGYPTVIPENTADCGYGDLTKFGTITQGDLAWLRQDVLEPLNKTIEDSAATQEAADFVNLYAPSQGHSVCDADKWVEGILTVSPNQDPQLSFVHPNASGHRNAADHVEEAMLNAIS
modifications: Streptomyces diastatochromogenes
For the molecule B1, the “methyl ester hydrolysis of a C7 compound” value in assay [1] was “affected the methyl ester hydrolysis of a C7 compound”.

B2: SEQ ID NO: 38: Segniliparus rotundus carboxylate reductase (protein, listed as Segniliparus rotundus)
chain: MTQSHTQGPQASAAHSRLARRAAELLATDPQAAATLPDPEVVRQATRPGLRLAERVDAILSGYADRPALGQRSFQTVKDPITGRSSVELLPTFDTITYRELRERATAIASDLAHHPQAPAKPGDFLASIGFISVDYVAIDIAGVFAGLTAVPLQTGATLATLTAITAETAPTLFAASIEHLPTAVDAVLATPSVRRLLVFDYRAGSDEDREAVEAAKRKIADAGSSVLVDVLDEVIARGKSAPKAPLPPATDAGDDSLSLLIYTSGSTGTPKGAMYPERNVAHFWGGVWAAAFDEDAAPPVPAINITFLPLSHVASRLSLMPTLARGGLMHFVAKSDLSTLFEDLKLARPTNLFLVPRVVEMLYQHYQSELDRRGVQDGTREAEAVKDDLRTGLLGGRILTAGFGSAPLSAELAGFIESLLQIHLVDGYGSTEAGPVWRDGYLVKPPVTDYKLIDVPELGYFSTDSPHPRGELAIKTQTILPGYYKRPETTAEVFDEDGFYLTGDVVAQIGPEQFAYVDRRKNVLKLSQGEFVTLAKLEAAYSSSPLVRQLFVYGSSERSYLLAVIVPTPDALKKFGVGEAAKAALGESLQKIARDEGLQSYEVPRDFIIETDPFTVENGLLSDARKSLRPKLKEHYGERLEAMYKELADGQANELRDIRRGVQQRPTLETVRRAAAAMLGASAAEIKPDAHFTDLGGDSLSALTFSNFLHDLFEVDVPVGVIVSAANTLGSVAEHIDAQLAGGRARPTFATVHGKGSTTIKASDLTLDKFIDEQTLEAAKHLPKPADPPRTVLLTGANGWLGRFLALEWLERLAPAGGKLITIVRGKDAAQAKARLDAAYESGDPKLAGHYQDLAATTLEVLAGDFSEPRLGLDEATWNRLADEVDFISHPGALVNHVLPYNQLFGPNVAGVAEIIKLAITTRIKPVTYLSTVAVAAGVEPSALDEDGDIRTVSAERSVDEGYANGYGNSKWGGEVLLREAHDRTGLPVRVFRSDMILAHQKYTGQVNATDQFTRLVQSLLATGLAPKSFYELDAQGNRQRAHYDGIPVDFTAESITTLGGDGLEGYRSYNVFNPHRDGVGLDEFVDWLIEAGHPITRIDDYDQWLSRFETSLRGLPESKRQASVLPLLHAFARPGPAVDGSPFRNTVFRTDVQKAKIGAEHDIPHLGKALVLKYADDIKQLGLL
modifications: Segniliparus rotundus (strain ATCC BAA-972 / CDC 1076 / CIP 108378 / DSM 44985 / JCM 13578)
notes: Segniliparus rotundus carboxylate reductase
Take B2: the “acceptance of heptanedioate as substrate, forming 7-oxoheptanoate” value in assay [2] was “accepted heptanedioate as substrate”. Further, the “acceptance of N7-acetyl-7-aminoheptanoate as substrate, forming N7-acetyl-7-aminoheptanal” value in assay [3] was “accepted N7-acetyl-7-aminoheptanoate as substrate”. For the same molecule, the “acceptance of 7-hydroxyheptanoate as substrate, forming 7-hydroxyheptanal” value in assay [4] is on record as “accepted 7-hydroxyheptanoate as substrate”. The “acceptance of 7-oxoheptanoate as substrate, forming heptanedial” value in assay [5] is given as “accepted 7-oxoheptanoate as substrate”.
